According to US20260193372A1 (Hoffmann-La Roche, published 2026):
Changes are numbered by the printed parent chain. Names and notes keep the numbering of the source. One block for each binder: values may come before it.

Legend:
[1] = biological target: T1, plasma purified C3b (Complement Technology), biotinylated at cysteine 1010 with Maleimide-PEG3-biotin (human, UniProt P01024 23-667; P01024 749-1663, limits assumed, cysteine 1010 biotinylated (Maleimide-PEG3-biotin)); assay: BLI, dissociation of C3bBb, Ni2+ buffer, against wild type C3bBb formed in presence of magnesium ions
T1 construct: Loaded on streptavidin BLI sensors; also called Complement C3 beta chain (C3b); C3 fragment
T1 sequence (P01024 23-667 limits assumed, chain 1 of 2): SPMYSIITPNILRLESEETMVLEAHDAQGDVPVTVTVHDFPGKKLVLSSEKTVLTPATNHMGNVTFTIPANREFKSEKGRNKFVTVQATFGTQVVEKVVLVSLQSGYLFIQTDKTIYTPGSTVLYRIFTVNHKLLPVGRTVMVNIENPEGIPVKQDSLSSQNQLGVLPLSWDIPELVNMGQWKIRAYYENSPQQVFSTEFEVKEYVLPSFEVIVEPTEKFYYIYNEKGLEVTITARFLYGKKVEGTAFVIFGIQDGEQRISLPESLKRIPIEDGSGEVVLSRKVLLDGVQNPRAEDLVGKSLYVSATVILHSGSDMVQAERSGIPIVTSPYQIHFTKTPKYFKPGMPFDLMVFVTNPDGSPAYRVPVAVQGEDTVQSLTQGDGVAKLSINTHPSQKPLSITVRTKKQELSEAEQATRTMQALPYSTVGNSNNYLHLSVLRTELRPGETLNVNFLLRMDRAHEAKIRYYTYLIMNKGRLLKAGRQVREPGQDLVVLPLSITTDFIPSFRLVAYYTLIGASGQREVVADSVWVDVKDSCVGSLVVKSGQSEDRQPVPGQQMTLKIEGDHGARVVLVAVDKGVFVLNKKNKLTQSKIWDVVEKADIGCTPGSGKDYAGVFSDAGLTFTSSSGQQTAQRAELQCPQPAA
T1 sequence (P01024 749-1663 limits assumed, chain 2 of 2): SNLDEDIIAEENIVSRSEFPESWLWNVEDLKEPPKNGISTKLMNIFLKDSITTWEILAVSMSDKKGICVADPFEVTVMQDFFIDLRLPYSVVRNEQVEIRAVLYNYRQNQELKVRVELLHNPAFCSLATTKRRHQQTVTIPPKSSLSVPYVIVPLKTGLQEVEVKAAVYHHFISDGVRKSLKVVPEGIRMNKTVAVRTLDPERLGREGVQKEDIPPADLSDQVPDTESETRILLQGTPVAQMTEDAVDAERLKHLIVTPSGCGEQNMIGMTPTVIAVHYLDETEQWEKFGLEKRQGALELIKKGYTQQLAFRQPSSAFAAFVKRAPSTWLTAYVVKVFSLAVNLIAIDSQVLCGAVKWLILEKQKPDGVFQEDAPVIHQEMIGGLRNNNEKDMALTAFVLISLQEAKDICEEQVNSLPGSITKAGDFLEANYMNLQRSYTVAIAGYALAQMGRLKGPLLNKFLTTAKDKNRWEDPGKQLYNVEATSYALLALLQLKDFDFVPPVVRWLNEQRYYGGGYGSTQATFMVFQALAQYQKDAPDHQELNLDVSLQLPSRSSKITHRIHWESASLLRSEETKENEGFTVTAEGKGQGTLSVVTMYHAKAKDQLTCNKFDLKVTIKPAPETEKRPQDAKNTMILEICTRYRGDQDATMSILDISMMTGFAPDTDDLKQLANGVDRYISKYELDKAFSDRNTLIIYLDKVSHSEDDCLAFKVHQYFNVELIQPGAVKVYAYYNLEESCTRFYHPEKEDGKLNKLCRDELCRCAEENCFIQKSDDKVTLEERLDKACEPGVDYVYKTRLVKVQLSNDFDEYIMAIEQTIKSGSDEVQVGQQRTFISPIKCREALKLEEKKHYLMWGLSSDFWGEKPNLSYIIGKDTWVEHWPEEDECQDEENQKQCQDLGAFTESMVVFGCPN

[2] = biological target: T1, plasma purified C3b (Complement …); assay: BLI, biotinylated C3b on streptavidin sensor, FB with factor D, Mg2+ buffer, dissociation of C3bBb, double exponential fit
Protocol: To analyze stability of the C3bBb complexes having the different Bb subunits, C3b cysteine 1010 was biotinylated by incubating plasma purified C3b (Complement Technology) overnight at 4° C. in presence of 5 molar excess Maleimide-PEG3-biotin (Thermo Fisher Scientific) followed by purification on a Zeba spin column 40K (Thermo Fisher Scientific). This material was used to load streptavidin functionalized BLI sensors (SA sensors; Fortebio) in an Octet RED 384 device (Fortebio) at high density (5 nm BLI signal). C3bBb was assembled by exposing the C3b loaded sensors to different recombinant factor B variants (i.e. wild type SEQ ID NO: 1; D279G variant of SEQ ID NO: 2; D279G K350N M458I triple variant of SEQ ID NO: 3) in presence of 54 nM plasma purified factor D (Complement Technology) in HBS-T (Mg) buffer (150 mM NaCl, 10 mM HEPES, 1 mM MgCl2, 0.005% Tween20. pH 7.4) at 22° C. […]
After subtraction of the signal recorded from parallel reference sensors omitting the C3b loading step and subtraction of a control sensor omitting factor B and factor D, data of the dissociation phase was fitted to the double exponential ((A*exp(((−1)*B)*x)))+(C*exp(((−1)*D)*x)) using XLfit (IDBS software), allowing for heterogeneity in the assembled convertase population. […]

[3] = biological target: T1, plasma purified C3b (Complement …); assay: BLI, biotinylated C3b on streptavidin sensor, FB with factor D, Ni2+ buffer, dissociation of C3bBb, single exponential fit
Excerpt: Correction of the BLI trace was identical to the experiment in presence of magnesium. Different from the Mg2+ containing C3bBb complexes, only one species was detected during dissociation and a single exponential decay (A*exp(((−1)*B)*x)) was used for analysis.

[4] = biological target: mixture of 5 nM human C3, 5 nM human C3a and 2.5 nM human C3b coated on the plate; assay: counterscreening ELISA, plate coated with a mixture of human C3, C3a and C3b, Fab supernatant
[5] = biological target: mixture of 10 nM human Factor B, 5 nM human Ba and 10 nM human Bb coated on the plate; assay: counterscreening ELISA, plate coated with a mixture of human Factor B, Ba and Bb, Fab supernatant
[6] = biological target: T2, stabilized human C3bBb complex comprising the Bb subunit of the FB protein of SEQ ID NO: 3 (triple mutant), … (human, UniProt P01024 23-667; P00751 260-764; P01024 749-1663, limits assumed, biotinylated with EZ-Link HPDP-Biotin (Cys)); assay: ELISA, biotinylated C3bBb on streptavidin plate, Fab supernatant, anti kappa/anti T7 HRP
T2 construct: also called C3bBb (D279G/350N/M458I); C3bBb triple mutant-HPDP
T2 sequence (P01024 23-667 limits assumed, stated change not applied, chain 1 of 3, one chain of several): as the sequence (P01024 23-667 limits assumed, chain 1 of 2) above
T2 sequence (P01024 749-1663 limits assumed, stated change not applied, chain 3 of 3, one chain of several): as the sequence (P01024 749-1663 limits assumed, chain 2 of 2) above
Protocol: (§1) Method: 20 μl of a mixture of 500 ng/ml stabilized human C3bBb-Cys-HPDP-Biotin (inhouse preparation), 1:3000 mouse anti human kappa HRP (Southern Biotech 9230-05) and 1:2000 Mouse IgG anti T7 Tag HRP (Novagen 69048-3) was added to a Microcoat Streptavidine coated 384 well Microplate (Microcoat 11974998001). 25 μl sample was added to the plate and incubated at room temperature for 1 hour. After incubation plates were washed with 90 μl/well washing buffer using a Biotek EL406 Washer and 30 μl TMB (3,3′,5,5′-3,3,5,5-Tetramethylbenzidine, Roche 11835033001) was added. After a 5 Minute incubation at room temperature the optical density (OD) was measured at 370 nm using an En Vision Multimode Plate Reader (Perkin Elmer).

[7] = biological target: T3, stabilized human C3bBb complex comprising the Bb subunit of the FB protein of SEQ ID NO: 2 (single mutant), … (human, UniProt P01024 23-667; P00751 260-764; P01024 749-1663, limits assumed, biotinylated with EZ-Link HPDP-Biotin (Cys)); assay: as above
T3 construct: also called C3bBb (D279G)
T3 sequence (P01024 23-667 limits assumed, stated change not applied, chain 1 of 3): as the sequence (P01024 23-667 limits assumed, chain 1 of 2) above
T3 sequence (P00751 other isoform, or with tags, fused parts or gaps mutant limits assumed, chain 2 of 3): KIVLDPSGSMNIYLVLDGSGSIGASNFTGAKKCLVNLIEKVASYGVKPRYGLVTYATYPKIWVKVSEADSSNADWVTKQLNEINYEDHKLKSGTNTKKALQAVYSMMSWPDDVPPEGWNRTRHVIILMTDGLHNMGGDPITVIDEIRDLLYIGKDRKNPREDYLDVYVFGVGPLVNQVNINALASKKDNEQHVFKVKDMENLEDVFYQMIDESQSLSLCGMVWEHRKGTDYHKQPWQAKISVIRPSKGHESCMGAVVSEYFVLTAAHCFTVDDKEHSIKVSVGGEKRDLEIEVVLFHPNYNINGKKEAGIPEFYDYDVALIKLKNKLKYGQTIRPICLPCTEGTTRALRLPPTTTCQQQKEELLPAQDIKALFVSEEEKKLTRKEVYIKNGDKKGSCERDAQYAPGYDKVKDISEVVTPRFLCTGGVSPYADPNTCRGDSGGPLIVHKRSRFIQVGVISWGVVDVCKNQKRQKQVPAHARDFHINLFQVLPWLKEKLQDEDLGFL
T3 sequence (P01024 749-1663 limits assumed, stated change not applied, chain 3 of 3): as the sequence (P01024 749-1663 limits assumed, chain 2 of 2) above
Protocol: as §1

B2: C3bBb.P048.061 (Fab, V domains shown)
VH: GQLVESGGGLVKPGGSLRLSCKASGFYWGPGAMSWVRQAPGKGLEWVGSISPKGGSTDINPKIGGRFTISRDNNQDTLYLQMNSLRAEDTAVYYCARDIGFFDTWGQGTLVTVSS
VL: AIQMTQSPSSLSASVGDRVTITCQGSWLISNYLAWYQQKPGKAPKLLIFDAKYRAPEVPSRFSGSGSGTDFTLTISSLQPEDFATYYCQQYGGRLLTFGQGTKVEIK
notes: Tested as soluble Fab in E. coli supernatant with a T7 tag at the C-terminus of the Fab CH1 domain; detected with anti human kappa
OD (370 nm) [4]: 0.001 OD
OD (370 nm) [5]: 0.006 OD
OD (370 nm) [6]: 1.9 OD
OD (370 nm) [7]: 0.004 OD

B4: C3bBb.P048.127 (Fab, V domains shown)
VH: B2 VH with D58E, I59Y, P61T, I63V, G64Y
VL: HQMTQSPSSLSASVGDRVTITCDGEWDISNYLAWYQQKPGKAPKLLIFDAKYRAPEVPSRFSGSGSGRDFTLTISSLQPEDFATYYCQQYNRMYFTFGQGTKVEIK
notes: as for B2
OD (370 nm) [4]: -0.006 OD
OD (370 nm) [5]: 0.002 OD
OD (370 nm) [6]: 0.187 OD
OD (370 nm) [7]: 2.42 OD

B6: C3bBb.P045.072 (Fab, V domains shown)
VH: KLQLVESGGGLVKPGGSLRLSCAASGRRFGVQDMSWVRQAPGKGLEWVGSISPKGDHKYLNTKFIGRFTISRDNSKNTLYLQMNSLRAEDTAVYYCARDWGYFDQWGQGTLVTVSS
VL: AIQMTQSPSSLSASVGDRVTITCHGSYWLSSEVAWYQQKPGKAPKLLIYDGNGIIGNVPSRFSGSGSHEDYTLTISSLQPEDFATYYCQQYRYHPYTFGHGTKVEIK
notes: as for B2
OD (370 nm) [4]: -0.005 OD
OD (370 nm) [5]: -0.01 OD
OD (370 nm) [6]: 2.9 OD
OD (370 nm) [7]: 0.023 OD

More lines, now with the values ahead:

fold increase in C3bBb half-life [1]: 135 fold
prevalence of main species [2]: 93%
t ½ [2]: 1.98 h
prevalence of main species [3]: 100%
t ½ [3]: 11.3 h
B1: recombinant human FB with D279G, K350N and M458I with His Tag and Precission site (enzyme)
chain: KIVLDPSGSMNIYLVLDGSGSIGASNFTGAKKCLVNLIEKVASYGVKPRYGLVTYATYPKIWVKVSEADSSNADWVTKQLNEINYEDHKLNSGTNTKKALQAVYSMMSWPDDVPPEGWNRTRHVIILMTDGLHNMGGDPITVIDEIRDLLYIGKDRKNPREDYLDVYVFGVGPLVNQVNINALASKKDNEQHVFKVKDIENLEDVFYQMIDESQSLSLCGMVWEHRKGTDYHKQPWQAKISVIRPSKGHESCMGAVVSEYFVLTAAHCFTVDDKEHSIKVSVGGEKRDLEIEVVLFHPNYNINGKKEAGIPEFYDYDVALIKLKNKLKYGQTIRPICLPCTEGTTRALRLPPTTTCQQQKEELLPAQDIKALFVSEEEKKLTRKEVYIKNGDKKGSCERDAQYAPGYDKVKDISEVVTPRFLCTGGVSPYADPNTCRGDSGGPLIVHKRSRFIQVGVISWGVVDVCKNQKRQKQVPAHARDFHINLFQVLPWLKEKLQDEDLGFL
notes: Cleaved by factor D in the assay; the Bb subunit stays on C3b; also called FB (D279G, K350N and M458I); triple mutated Bb

OD (370 nm) [4]: 0.17 OD
OD (370 nm) [5]: 0.037 OD
OD (370 nm) [6]: 2.38 OD
OD (370 nm) [7]: 2.57 OD
B3: C3bBb.P048.241 (Fab, V domains shown)
VH: B2 VH with T57A, D58W, I59Y, P61N, K62N, I63F, G64T
VL: INQMTQSPSSLSASVGDRVTITCQAKWVISNYLAWYQQKPGKAPKLLIFDAKYRAPEVPSRFSGSGSDGTFTLTISSLQPEDFATYYCQQYDWWPYTFGQGTKVEIK
notes: as for B2

OD (370 nm) [4]: -0.014 OD
OD (370 nm) [5]: 0.004 OD
OD (370 nm) [6]: -0.01 OD
OD (370 nm) [7]: 0.86 OD
B5: C3bBb.P055.015 (Fab, V domains shown)
VH: B2 VH with T57A, D58E, I59Y, N60A, P61S, I63V, G64Y
VL: DYQMTQSPSSLSASVGDRVTITCEAHSQISNYLAWYQQKPGKAPKLLIFDAKYRAPEVPSRFSGSGSGPDFTLTISSLQPEDFATYYCQQYNDFWLTFGQGTKVEIK
notes: as for B2
